In paper PMC9103234:

Biological target: CD20 on the surface of Raji cells (human (endogenous in Raji)) (UniProt P11836)
Chain of UniProt P11836 (P11836 whole entry): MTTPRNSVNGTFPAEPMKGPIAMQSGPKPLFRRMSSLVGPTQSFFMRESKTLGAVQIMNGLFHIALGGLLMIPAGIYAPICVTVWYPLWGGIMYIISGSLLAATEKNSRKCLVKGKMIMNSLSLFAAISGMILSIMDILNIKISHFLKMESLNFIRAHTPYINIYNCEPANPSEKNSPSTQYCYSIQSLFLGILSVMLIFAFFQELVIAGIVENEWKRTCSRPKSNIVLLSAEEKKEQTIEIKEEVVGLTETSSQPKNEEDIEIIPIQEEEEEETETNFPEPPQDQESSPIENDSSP

Substance: rituximab (antibody)
- EC50 of complement-dependent cytotoxicity on Raji cells (LDH release, guinea-pig complement): 0.88 nM
